Test system: Escherichia coli TOP10
Experiment: shrunken log2 fold change of peptide-encoding DNA abundance (4.5 h post-induction vs induction); higher = less antimicrobial activity (less host growth inhibition)
Details: time post-induction: 4.5 h; library: site-saturation at positions 5, 18, 19, 20
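Note: peptides expressed intracellularly from a pBAD plasmid library in pooled LB shake-flask culture, induced with 0.3% L-arabinose, DNA abundance read by NGS, three biological replicates, DESeq2 with apeglm shrinkage.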

| Sequence | shrunken log2 fold change |
| --- | --- |
| RRIRLRPPRLPRPRPRPHCKPRP | -0.708 |
| RRIRTRPPRLPRPRPRPSDCPRP | 0.131 |
| RRIRARPPRLPRPRPRPMACPRP | 0.879 |
| RRIRFRPPRLPRPRPRPLPRPRP | 0.669 |
| RRIRPRPPRLPRPRPRPNCVPRP | -0.0731 |
| RRIRARPPRLPRPRPRPGEKPRP | 0.333 |
| RRIRPRPPRLPRPRPRPHAEPRP | 0.206 |
| RRIRDRPPRLPRPRPRPIVSPRP | 0.041 |
| RRIRCRPPRLPRPRPRPYDNPRP | -0.498 |
| RRIRFRPPRLPRPRPRPDWHPRP | -0.152 |
| RRIRTRPPRLPRPRPRPVAGPRP | -0.0116 |
| RRIRTRPPRLPRPRPRPIPIPRP | -0.0307 |
| RRIRGRPPRLPRPRPRPFPLPRP | 0.227 |
| RRIRFRPPRLPRPRPRPWGKPRP | -0.221 |
| RRIRARPPRLPRPRPRPRFFPRP | 0.453 |
| RRIRDRPPRLPRPRPRPWPWPRP | -0.0837 |
| RRIRKRPPRLPRPRPRPIHEPRP | -0.0401 |
| RRIRWRPPRLPRPRPRPPNQPRP | 0.363 |
| RRIRSRPPRLPRPRPRPPAVPRP | 0.711 |
| RRIRTRPPRLPRPRPRPSCTPRP | -0.643 |
| RRIRQRPPRLPRPRPRPWALPRP | -0.0992 |
| RRIRKRPPRLPRPRPRPPLFPRP | 0.321 |
| RRIRSRPPRLPRPRPRPTYYPRP | -0.42 |
| RRIRQRPPRLPRPRPRPVIPPRP | -1.12 |
| RRIRCRPPRLPRPRPRPLMGPRP | -0.214 |

| Sequence | shrunken log2 fold change |
| --- | --- |
| RRIRMRPPRLPRPRPRPLGTPRP | 1.31 |
| RRIRKRPPRLPRPRPRPHWRPRP | 0.3 |
| RRIRCRPPRLPRPRPRPRTCPRP | 0.0191 |
| RRIRARPPRLPRPRPRPPGNPRP | 0.574 |
| RRIRFRPPRLPRPRPRPHGAPRP | 0.109 |
| RRIRDRPPRLPRPRPRPRDGPRP | 0.81 |
| RRIRPRPPRLPRPRPRPVLQPRP | 0.162 |
| RRIRRRPPRLPRPRPRPFYKPRP | -0.173 |
| RRIRFRPPRLPRPRPRPSKMPRP | -0.351 |
| RRIRTRPPRLPRPRPRPNNQPRP | -0.665 |
| RRIRHRPPRLPRPRPRPQLIPRP | 0.00748 |
| RRIRSRPPRLPRPRPRPWELPRP | 0.637 |
| RRIRRRPPRLPRPRPRPSHTPRP | 0.278 |
| RRIRLRPPRLPRPRPRPSSPPRP | -0.115 |
| RRIRARPPRLPRPRPRPHLSPRP | 0.0969 |
| RRIRPRPPRLPRPRPRPTEQPRP | 0.307 |
| RRIRPRPPRLPRPRPRPDPPPRP | 0.249 |
| RRIRKRPPRLPRPRPRPKKQPRP | -0.119 |
| RRIRHRPPRLPRPRPRPQHFPRP | 0.0728 |
| RRIRKRPPRLPRPRPRPQCFPRP | -0.0263 |
| RRIRPRPPRLPRPRPRPNVLPRP | -0.312 |
| RRIRPRPPRLPRPRPRPRWVPRP | 0.164 |
| RRIRCRPPRLPRPRPRPYPWPRP | -1.29 |
| RRIRIRPPRLPRPRPRPKTVPRP | 0.0407 |
| RRIRLRPPRLPRPRPRPVADPRP | 0.0131 |

| Sequence | shrunken log2 fold change |
| --- | --- |
| RRIRGRPPRLPRPRPRPAAYPRP | 0.929 |
| RRIRDRPPRLPRPRPRPHAWPRP | 0.1 |
| RRIRKRPPRLPRPRPRPFIKPRP | -0.0863 |
| RRIRQRPPRLPRPRPRPGTYPRP | 0.00894 |
| RRIRVRPPRLPRPRPRPLEYPRP | 0.0331 |
| RRIRFRPPRLPRPRPRPCPFPRP | -0.988 |
| RRIRERPPRLPRPRPRPKKWPRP | 2.71 |
| RRIRWRPPRLPRPRPRPTHRPRP | 0.8 |
| RRIRSRPPRLPRPRPRPIWTPRP | -0.254 |
| RRIRSRPPRLPRPRPRPLTPPRP | 0.166 |
| RRIRYRPPRLPRPRPRPDKTPRP | 0.0325 |
| RRIRLRPPRLPRPRPRPPYDPRP | -0.188 |
| RRIRARPPRLPRPRPRPYNNPRP | -0.817 |
| RRIRKRPPRLPRPRPRPRLLPRP | 0.517 |
| RRIRIRPPRLPRPRPRPWFEPRP | -0.161 |
| RRIRVRPPRLPRPRPRPIQRPRP | -0.0384 |
| RRIRRRPPRLPRPRPRPMDLPRP | 0.0641 |
| RRIRCRPPRLPRPRPRPGMFPRP | -0.462 |
| RRIRWRPPRLPRPRPRPYYDPRP | -0.262 |
| RRIRYRPPRLPRPRPRPNRIPRP | -0.815 |
| RRIRWRPPRLPRPRPRPVIGPRP | 0.183 |
| RRIRARPPRLPRPRPRPFHIPRP | -0.906 |
| RRIRYRPPRLPRPRPRPEWDPRP | -0.0176 |
| RRIRGRPPRLPRPRPRPDPYPRP | -0.0305 |
| RRIRARPPRLPRPRPRPSQTPRP | 0.416 |

| Sequence | shrunken log2 fold change |
| --- | --- |
| RRIRSRPPRLPRPRPRPNESPRP | -0.153 |
| RRIRIRPPRLPRPRPRPQEFPRP | 0.0204 |
| RRIRERPPRLPRPRPRPCCQPRP | -0.485 |
| RRIRYRPPRLPRPRPRPVKSPRP | -0.84 |
| RRIRGRPPRLPRPRPRPFIVPRP | -0.00433 |
| RRIRKRPPRLPRPRPRPHRYPRP | 0.321 |
| RRIRTRPPRLPRPRPRPNRLPRP | 0.0657 |
| RRIRRRPPRLPRPRPRPNYYPRP | -0.333 |
| RRIRMRPPRLPRPRPRPPMIPRP | -0.0431 |
| RRIRTRPPRLPRPRPRPHNEPRP | -0.581 |
| RRIRIRPPRLPRPRPRPANGPRP | 0.0224 |
| RRIRERPPRLPRPRPRPRCSPRP | 0.0243 |
| RRIRPRPPRLPRPRPRPIHGPRP | -0.00809 |
| RRIRLRPPRLPRPRPRPSHIPRP | -0.877 |
| RRIRQRPPRLPRPRPRPHMNPRP | -0.76 |
| RRIRPRPPRLPRPRPRPNFHPRP | -0.169 |
| RRIRSRPPRLPRPRPRPWTCPRP | 0.00516 |
| RRIRIRPPRLPRPRPRPTVNPRP | -0.608 |
| RRIRFRPPRLPRPRPRPFVYPRP | -0.413 |
| RRIRHRPPRLPRPRPRPIHFPRP | -0.171 |
| RRIRRRPPRLPRPRPRPRKYPRP | -0.33 |
| RRIRCRPPRLPRPRPRPVQNPRP | -0.22 |
| RRIRIRPPRLPRPRPRPGNIPRP | -0.479 |
| RRIRHRPPRLPRPRPRPTEFPRP | -0.153 |
| RRIRERPPRLPRPRPRPCNHPRP | -0.567 |

| Sequence | shrunken log2 fold change |
| --- | --- |
| RRIRCRPPRLPRPRPRPPCNPRP | -0.355 |
| RRIRYRPPRLPRPRPRPTMMPRP | -1.19 |
| RRIRMRPPRLPRPRPRPMNFPRP | 0.032 |
| RRIRIRPPRLPRPRPRPVEMPRP | -0.299 |
| RRIRLRPPRLPRPRPRPQQLPRP | -0.106 |
| RRIRTRPPRLPRPRPRPKEHPRP | -0.174 |
| RRIRWRPPRLPRPRPRPTDTPRP | -0.0769 |
| RRIRWRPPRLPRPRPRPGQWPRP | 0.032 |
| RRIRSRPPRLPRPRPRPQHKPRP | -0.131 |
| RRIRNRPPRLPRPRPRPFWFPRP | 0.195 |
| RRIRNRPPRLPRPRPRPTHLPRP | 0.109 |
| RRIRRRPPRLPRPRPRPFTFPRP | -0.247 |
| RRIRIRPPRLPRPRPRPMEYPRP | -0.395 |
| RRIRMRPPRLPRPRPRPENCPRP | 0.0159 |
| RRIRNRPPRLPRPRPRPQFMPRP | -0.709 |
| RRIRRRPPRLPRPRPRPKITPRP | -0.226 |
| RRIRLRPPRLPRPRPRPCMRPRP | 0.188 |
| RRIRQRPPRLPRPRPRPILIPRP | -0.521 |
| RRIRIRPPRLPRPRPRPEFKPRP | 0.387 |
| RRIRTRPPRLPRPRPRPFTWPRP | -0.308 |
| RRIRRRPPRLPRPRPRPNPWPRP | 0.231 |
| RRIRARPPRLPRPRPRPGLHPRP | 0.275 |
| RRIRFRPPRLPRPRPRPPHHPRP | -0.0595 |
| RRIRARPPRLPRPRPRPKNVPRP | 0.166 |
| RRIRYRPPRLPRPRPRPTPMPRP | 0.843 |

| Sequence | shrunken log2 fold change |
| --- | --- |
| RRIRKRPPRLPRPRPRPLWLPRP | 0.377 |
| RRIRDRPPRLPRPRPRPPKGPRP | 0.644 |
| RRIRGRPPRLPRPRPRPLCWPRP | 0.774 |
| RRIRERPPRLPRPRPRPVNYPRP | -0.0115 |
| RRIRFRPPRLPRPRPRPQIWPRP | -0.0457 |
| RRIRSRPPRLPRPRPRPVVQPRP | -0.0812 |
| RRIRYRPPRLPRPRPRPMRNPRP | 0.174 |
| RRIRVRPPRLPRPRPRPTFPPRP | 0.0553 |
| RRIRTRPPRLPRPRPRPDTCPRP | -0.0125 |
| RRIRARPPRLPRPRPRPSCNPRP | -0.515 |
| RRIRMRPPRLPRPRPRPLAHPRP | 0.0417 |
| RRIRPRPPRLPRPRPRPKWIPRP | -0.465 |
| RRIRERPPRLPRPRPRPDGTPRP | 0.0123 |
| RRIRRRPPRLPRPRPRPYAYPRP | -0.189 |
| RRIRNRPPRLPRPRPRPTDTPRP | -0.08 |
| RRIRIRPPRLPRPRPRPFICPRP | -0.304 |
| RRIRWRPPRLPRPRPRPPDNPRP | 0.318 |
| RRIRIRPPRLPRPRPRPYLLPRP | -1.52 |
| RRIRRRPPRLPRPRPRPLTNPRP | -0.16 |
| RRIRIRPPRLPRPRPRPEEVPRP | -0.00172 |
| RRIRGRPPRLPRPRPRPKRAPRP | 1.11 |
| RRIRQRPPRLPRPRPRPNVRPRP | 0.0221 |
| RRIRQRPPRLPRPRPRPCTPPRP | -0.141 |
| RRIRHRPPRLPRPRPRPPELPRP | 0.469 |
| RRIRCRPPRLPRPRPRPNWVPRP | -0.279 |

Source: the supplement of paper PMC9112550, “Optimization of the antimicrobial peptide Bac7 by deep mutational scanning” (BMC Biology, 2022)
